How the values were obtained:
Type in all cases: binding, human
antibodies to HCV [1] = assay: NS-1 peptide ELISA, Panel II (asymptomatic individuals, mainland China and Taiwan)
Protocol: Wells of 96-well plates were coated for 1 hour at 37° C. with each of the 16 peptides (designated as peptides 241A-C, 231A-E, 232A-D, 233C, 234A-C), synthesized according to sequences derived from the NS-1 region (Table 3A), at 5 ug/mL at 100 uL per well in 10 mM NaHCO3 buffer, pH 9.5. Each peptide's immunoreactivity was measured as previously described (see Example 1), using an 8 member serum panel (Panel I).
A panel of serum samples from individuals coming from regions in which hepatitis C is endemic, namely mainland China and Taiwan, were tested for evidence of reactivity to these NS-1 protein derived peptides. Twenty-four samples were chosen from individuals who had no recognizable symptoms of non-A, non-B hepatitis and for whom the peptide based HCV EIA, Format C, as described in Example 11, was nonreactive. Seven of the 24 samples (29%) were reactive against one or more peptides from the NS-1 region, indicative of the presence of long term protective antibodies responsive to this region. This 7 member panel (designated as Panel II, CH1-CH7) was used to further characterize these NS-1 peptides for their immunoreactivity.
The peptide with the greatest reactivity against the serum Panel II again was pep1 (designated 231c in Table 3A). Using this peptide as a standard, the relative immunoreactivity for each of the other 15 peptides from the NS-1 region are calculated in Table 3A.

antibodies to HCV [2] = assay: Peptide ELISA for relative immunoreactivity, 8 member HCV serum panel (Panel I); conditions: for absorbance of the one reactive panel member: reactive with only one of eight
Protocol: As an example to illustrate how relative (%) immunoreactivity for HCV synthetic peptides is measured, wells of 96-well plates are coated for 1 hour at 37° C., with each of the following peptides: IIH, V, VIIIE and pep11 at 5 ug/mL at 100 uL per well in 10 mM NaHCO3 buffer, pH 9.5. The peptide coated wells were then incubated with 250 uL of 3% by weight of gelatin in PBS in 37° C. for 1 hour to block non-specificprotein binding sites, followed by three washes with PBS containing 0.05% by volume of TWEEN 20 and then dried. The test specimens containing a panel of eight well-characterized HCV antibody positive patient sera were diluted with PBS containing 20% by volume normal goat serum, 1% by weight gelatin and 0.05% by volume TWEEN 20 at dilutions of 1:20 volume to volume, respectively. 200 uL of the diluted specimens were added to each of the wells and allowed to react for 15 minutes at 37° C.
The wells were then washed six times with 0.05% by volume TWEEN 20 in PBS in order to remove unbound antibodies. Horseradish peroxidase conjugated goat anti-human IgG was used as a second antibody tracer to bind with the HCV antibody-peptide antigen complex formed in positive wells. 100 uL of peroxidase labeled goat anti-human IgG at a dilution of 1:1800 in 1% by volume normal goat serum, 0.05% by volume TWEEN 20 in PBS was added to each well and incubated at 37° C. for another 15 minutes.
The wells were washed six times with 0.05% by volume TWEEN 20 PBS to remove unbound antibody and reacted with 100 uL of the substrate mixture containing 0.04% by weight orthophenylenediamine (OPD) and 0.12% by volume hydrogen peroxide in sodium citrate buffer, pH 5.0.
This substrate mixture was used to detect the peroxidase label by forming a colored product. Reactions were stopped by the addition of 100 uL of 1.0M H2 SO4 and the A492 mm measured. Results of relative immunoreactivity for each of the peptides obtained from this study are shown in Table A using peptide II H as the reference.

antibodies to HCV [3] = assay: Envelope/NS-1 peptide ELISA, anti-HCV positive plasmapheresis donors with elevated ALT (Panel III); conditions: envelope/NS-1 peptides; Panel III (17 samples); peptide 254B as a standard
Protocol: To select a panel of samples with reactivity to peptides from the envelope/NS-1 region, 97 such samples from anti-HCV positive plasmapheresis donors with elevated ALT levels were tested with peptide 254B. […] 17 samples with the greatest reactivity with peptide 254B were chosen to form a third panel (Panel III) to screen for the immunoreactivity of the other 20 peptides from the envelope/NS-1 region. The individual absorbance values of each of the 17 samples on the four peptides with the greatest reactivity, i.e. 255C (pep7), 254B (pep8), 247B (pep9), and 246D (pep10), are listed in Table 8b.

antibodies to HCV [4] = assay: EIA of NS-3 peptides before and after pH adjustment
Protocol: Peptides dissolved at 1 mg/mL in H2 O, pH 4, were titrated to pH 11 by addition of diluted NaOH. After 5 min at pH 11, the pH of the peptide solution was brought down to 7.0 using diluted HCl. Immunoreactivity of the peptides thus treated was compared with reactivity prior to pH adjustment (Table 4E). Two-to three-fold increases in A492 nm were seen. Some previously non-reactive serum samples were able to react with pH adjusted peptides. For instance, serum sample 1, which is non-reactive to 261C, has an absorbance of 1401 mA when tested with the corresponding pH adjusted peptide.

[5] = NS-3 peptides (Table 4A), Panel I, relative to pep3 (279A)
[6] = NS-5 peptides (Table 12), Panel I, pep11 as a standard
[7] = capsid peptides, Panel I, relative to VIIIE, coated at 5, 1 and 0.2 μg/mL
[8] = serum sample 1, Ctrl (prior to pH adjustment)
[9] = serum sample 1, pH adj (pH 11 for 5 min, then 7.0)

PPLGNWFGCTWMNSTGFTKVCGAPPC [232A]
% IP (antibodies to HCV [1]; NS-1 peptides, Panel II (CH1-CH7), relative to pep1 (231C)): 88.7%
A492 nm by EIA (mA) (antibodies to HCV [1]; Panel II sample CH-1): 202 mA
A492 nm by EIA (mA) (antibodies to HCV [1]; Panel II sample CH-2): 261 mA
A492 nm by EIA (mA) (antibodies to HCV [1]; Panel II sample CH-3): 935 mA
A492 nm by EIA (mA) (antibodies to HCV [1]; Panel II sample CH-4): 1498 mA
A492 nm by EIA (mA) (antibodies to HCV [1]; Panel II sample CH-5): 621 mA
A492 nm by EIA (mA) (antibodies to HCV [1]; Panel II sample CH-6): 1128 mA
A492 nm by EIA (mA) (antibodies to HCV [1]; Panel II sample CH-7): 552 mA

PVVPQSFQVAHLHAPTGSGKSTKVPAAYA [278A]
% IP (antibodies to HCV [2]; [5]): 8.2%

PVVPQSFQVAHLHAPTGSGKSTKVPAAYAAQGYKVLVLNPS [272A]
% IP (antibodies to HCV [2]; [5]): 2.1%

RTITTGSPITYSTYGKFLADGGCSGGAYDIIICDECHSTDATSILGIGTVLDQAETAGARLVVLATATPPGSVTVPHPNIEEVALSTTGEIPFYGKAIPLEVIKGGRHLIFCHSKKKCDEL [261F]
absorbance of the one reactive panel member (antibodies to HCV [2]; Panel I): 269 mA

SECTTPCSGSWLRDIWDWICEVLSDFKTWLKAKLMPQL [314B]
% IP (antibodies to HCV [2]; [6]): 11.6%

TNDCPNSSIVYEAHDAILHTPGCVPCVREGNVSRC [255A]
% Relative Immunoreactivity (antibodies to HCV [3]): 9.8%

TQGCNCSIYPGHITGHRMAWDMMMWSPTA [254A]
% Relative Immunoreactivity (antibodies to HCV [3]): 21.4%

TWAQPGYPWPLYGNEGCGWAGWLLSPRGSRPSWGPTDPRRRSRNLG [IXC]
% Relative Immunoreactivity (antibodies to HCV [2]; [7]): 57.9%

VGGVYLLPRRGPRLGVRATRKTSERSQPRGRR [VIIIB]
% Relative Immunoreactivity (antibodies to HCV [2]; [7]): 48.9%

B1: AVDFIPVENLETTMRSPVFTDNSSPPVVPQSFQVAHLHAPTGSGKSTKVPAAYAAQGYKVLVLNPS (peptide)
chain: AVDFIPVENLETTMRSPVFTDNSSPPVVPQSFQVAHLHAPTGSGKSTKVPAAYAAQGYKVLVLNPS
% IP (antibodies to HCV [2]; [5]): 11.8%
A492 nm (mA) by EIA (antibodies to HCV [4]; [8]): 8 mA
A492 nm (mA) by EIA (antibodies to HCV [4]; [9]): 973 mA
A492 nm (mA) by EIA (antibodies to HCV [4]; serum sample 2, Ctrl): 74 mA
A492 nm (mA) by EIA (antibodies to HCV [4]; serum sample 2, pH adj): 255 mA
A492 nm (mA) by EIA (antibodies to HCV [4]; serum sample 3, Ctrl): 29 mA
A492 nm (mA) by EIA (antibodies to HCV [4]; serum sample 3, pH adj): 141 mA
A492 nm (mA) by EIA (antibodies to HCV [4]; serum sample 4, Ctrl): 17 mA
A492 nm (mA) by EIA (antibodies to HCV [4]; serum sample 4, pH adj): 158 mA

B2: KKGEASNGEAENDTHKKQRRYKEKEKTATNNPGKNKKPRVGRIKNWNREGRKDAYQIRKRR (peptide)
peptide: KKGEASNGEAENDTHKKQRRYKEKEKTATNNPGKNKKPRVGRIKNWNREGRKDAYQIRKRR
% Relative Immunoreactivity (antibodies to HCV [2]; Arima clone 1 peptides, relative to peptide VIIIE): 20.7%

B3: GRRQPIPKVRRPEGRTWAQPGYPWPLYGNEGCGWAGWLLSPRGSRPSWGPTDPRRRSRNLG (peptide)
peptide: GRRQPIPKVRRPEGRTWAQPGYPWPLYGNEGCGWAGWLLSPRGSRPSWGPTDPRRRSRNLG
% Relative Immunoreactivity (antibodies to HCV [2]; [7]): 50.2%

B4: AEEDEREISVPAEILRKSRRFAQALPVWARPDYNPPLVETWKKPDYEPPVVHGCPLPPPKSPPVPPPRKKRT (peptide)
chain: AEEDEREISVPAEILRKSRRFAQALPVWARPDYNPPLVETWKKPDYEPPVVHGCPLPPPKSPPVPPPRKKRT
% IP (antibodies to HCV [2]; [6]): 97.2%

B5: GCSGGAYDIIICDECHSTDATSILGIGTVLDQAETAGARLVVLATATPPGSVTVPHPNIEEVAL (peptide)
chain: GCSGGAYDIIICDECHSTDATSILGIGTVLDQAETAGARLVVLATATPPGSVTVPHPNIEEVAL
A492 nm (mA) by EIA (antibodies to HCV [4]; [8]): 628 mA
A492 nm (mA) by EIA (antibodies to HCV [4]; [9]): 1604 mA
A492 nm (mA) by EIA (antibodies to HCV [4]; serum sample 2, Ctrl): 148 mA
A492 nm (mA) by EIA (antibodies to HCV [4]; serum sample 2, pH adj): 466 mA
A492 nm (mA) by EIA (antibodies to HCV [4]; serum sample 3, Ctrl): 9 mA
A492 nm (mA) by EIA (antibodies to HCV [4]; serum sample 3, pH adj): 625 mA
A492 nm (mA) by EIA (antibodies to HCV [4]; serum sample 4, Ctrl): 464 mA
A492 nm (mA) by EIA (antibodies to HCV [4]; serum sample 4, pH adj): 1144 mA

B6: GGAYDIIICDECHSTDATSILGIGTVLDQAETAGARLVVLATATPPGSVTVPHPNIEEVALSTTGEIPFYGKAIPLEVIKGGRHLIFCHSKKKCDEL (peptide)
chain: GGAYDIIICDECHSTDATSILGIGTVLDQAETAGARLVVLATATPPGSVTVPHPNIEEVALSTTGEIPFYGKAIPLEVIKGGRHLIFCHSKKKCDEL
absorbance of the one reactive panel member (antibodies to HCV [2]; Panel I): 307 mA

Source: patent US5747239A, “Synthetic peptides specific for the detection of antibodies to HCV, diagnosis of HCV infection and preventions thereof as vaccines” (United Biomedical, Inc., priority 1994, dated 1998)
